Reference: patent publication US20030108554A1 (published 2003)

How the values were obtained:
[1] = biological target: T1, purified yeast recombinant GIP90 with FLAG tag at N-terminal position and 6 histidine tail at C-terminal position
T1 chain: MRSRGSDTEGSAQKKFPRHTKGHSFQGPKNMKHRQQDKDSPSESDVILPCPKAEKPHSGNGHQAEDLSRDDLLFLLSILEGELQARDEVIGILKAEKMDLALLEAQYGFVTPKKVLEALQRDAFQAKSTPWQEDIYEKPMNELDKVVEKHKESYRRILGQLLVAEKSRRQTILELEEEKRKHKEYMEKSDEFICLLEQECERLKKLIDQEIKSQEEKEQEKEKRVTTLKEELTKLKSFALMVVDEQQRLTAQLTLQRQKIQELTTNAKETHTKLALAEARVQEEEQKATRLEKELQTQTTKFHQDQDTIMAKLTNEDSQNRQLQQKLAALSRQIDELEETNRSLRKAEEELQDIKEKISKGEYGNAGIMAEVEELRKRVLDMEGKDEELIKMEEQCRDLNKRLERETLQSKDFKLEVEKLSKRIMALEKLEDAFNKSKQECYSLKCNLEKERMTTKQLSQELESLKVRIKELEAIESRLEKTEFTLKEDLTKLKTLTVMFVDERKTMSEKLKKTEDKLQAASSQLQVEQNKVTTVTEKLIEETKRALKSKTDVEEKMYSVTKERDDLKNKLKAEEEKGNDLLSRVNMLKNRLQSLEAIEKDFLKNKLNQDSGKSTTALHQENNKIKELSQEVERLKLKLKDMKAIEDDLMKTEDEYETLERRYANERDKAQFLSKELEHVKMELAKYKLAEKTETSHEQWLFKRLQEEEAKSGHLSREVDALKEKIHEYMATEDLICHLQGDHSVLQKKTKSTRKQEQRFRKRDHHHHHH

[2] = biological target: T2, GIP90 (GPBP interacting protein 90 kDa) (human, UniProt Q4L180 1-749, limits assumed); experiment: yeast two-hybrid, β-galactosidase colony lift
T2 construct: Full length; tested as GAL4 domain fusion in yeast two-hybrid/three-hybrid; fusion parts are not written as pieces
T2 sequence: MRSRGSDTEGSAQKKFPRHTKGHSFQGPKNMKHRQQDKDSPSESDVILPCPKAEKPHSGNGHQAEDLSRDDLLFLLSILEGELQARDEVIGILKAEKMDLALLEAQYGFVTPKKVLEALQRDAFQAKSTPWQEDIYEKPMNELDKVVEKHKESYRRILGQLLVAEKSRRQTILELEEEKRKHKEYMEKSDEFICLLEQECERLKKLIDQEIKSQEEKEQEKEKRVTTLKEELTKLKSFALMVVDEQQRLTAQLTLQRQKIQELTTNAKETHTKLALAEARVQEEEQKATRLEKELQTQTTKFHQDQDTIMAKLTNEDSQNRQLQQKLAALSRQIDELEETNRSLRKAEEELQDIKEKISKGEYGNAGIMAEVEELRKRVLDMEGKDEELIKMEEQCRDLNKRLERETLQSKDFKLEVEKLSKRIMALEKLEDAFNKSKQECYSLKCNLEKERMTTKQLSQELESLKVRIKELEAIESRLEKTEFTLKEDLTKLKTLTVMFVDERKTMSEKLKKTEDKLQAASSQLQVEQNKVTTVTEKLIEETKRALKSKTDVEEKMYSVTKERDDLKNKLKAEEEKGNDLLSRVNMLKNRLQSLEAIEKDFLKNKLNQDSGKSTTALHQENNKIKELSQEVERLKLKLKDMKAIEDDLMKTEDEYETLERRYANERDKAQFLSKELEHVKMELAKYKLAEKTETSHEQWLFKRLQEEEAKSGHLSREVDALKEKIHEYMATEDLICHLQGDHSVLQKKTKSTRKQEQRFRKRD
Procedure: Deletion mutants were obtained using specific primers and PCR, followed by cloning of the resulting cDNAs in the pGBT9 and pGAD424 vectors. The assays were performed in SFY526 or HF7c Saccharomyces cerevisiae strains, with pGBT9 as GAL4 binding domain vector and pGAD424 as GAL4 activation domain vector, by the lift colony assay procedure. Briefly, the yeast cells were co-transformed with constructs of both binding domain and activation domain vectors, and the co-transformants were selected in medium deficient in both tryptophan and leucine. After five days of incubation at 30° C. the colonies were tested for the expression of β-galactosidase with X-Gal substrate (0.75 mg/ml). […] When the assays were performed with the HF7c strain, the interactions were assessed by the lift colony assay procedure and by growth in medium deficient in histidine, tryptophan and leucine. For yeast three-hybrid system, we used the pBRIDGE vector, which allows the conditional expression of a third protein apart from the usual GAL4 binding and activation domain-fusion proteins of the two-hybrid system. In this case, the expression of GPBP or I-20 or GIP90 was driven by Met25 promoter, active in absence of methionine. In these experiments, the transformed SFY526 cells were plated in medium deficient in tryptophan, leucine and methionine, and subjected to the colony lift assay after five days at 30° C. […]

B1: Goodpasture antigen binding protein (GPBP) (enzyme, UniProt Q9Y5P4 1-624, looked up)
chain: MSDNQSWNSSGSEEDPETESGPPVERCGVLSKWTNYIHGWQDRWVVLKNNALSYYKSEDETEYGCRGSICLSKAVITPHDFDECRFDISVNDSVWYLRAQDPDHRQQWIDAIEQHKTESGYGSESSLRRHGSMVSLVSGASGYSATSTSSFKKGHSLREKLAEMETFRDILCRQVDTLQKYFDACADAVSKDELQRDKVVEDDEDDFPTTRSDGDFLHSTNGNKEKLFPHVTPKGINGIDFKGEAITFKATTAGILATLSHCIELMVKREDSWQKRLDKETEKKRRTEEAYKNAMTELKKKSHFGGPDYEEGPNSLINEEEFFDAVEAALDRQDKIEEQSQSEKVRLHWPTSLPSGDAFSSVGTHRFVQKPYSRSSSMSSIDLVSASDDVHRFSSQVEEMVQNHMTYSLQDVGGDANWQLVVEEGEMKVYRREVEENGIVLDPLKATHAVKGVTGHEVCNYFWNVDVRNDWETTIENFHVVETLADNAIIIYQTHKRVWPASQRDVLYLSVIRKIPALTENDPETWIVCNFSVDHDSAPLNNRCVRAKINVAMICQTLVSPPEGNQEISRDNILCKITYVANVNPGGWAPASVLRAVAKREYPKFLKRFTSYVQEKTAGKPILF
notes: Protein kinase; Fusion parts are not written as pieces
^32P incorporation into GIP90 (in vitro phosphorylation with [γ^32P] ATP, Western blot and autoradiography) [1]: resulted in ^32P incorporation into GIP90
binding result [2]: binds
